In publication PMC7253548:

Molecular target: OsHsfB4d (Oryza sativa (rice; cv. Zhonghua 11?)) (UniProt Q10KX8)
Assay: EMSA
Settings: room temperature 20 min, buffer

OsHsfB4d (Oryza sativa (rice; cv. Zhonghua 11?)), sequence (Q10KX8 whole entry): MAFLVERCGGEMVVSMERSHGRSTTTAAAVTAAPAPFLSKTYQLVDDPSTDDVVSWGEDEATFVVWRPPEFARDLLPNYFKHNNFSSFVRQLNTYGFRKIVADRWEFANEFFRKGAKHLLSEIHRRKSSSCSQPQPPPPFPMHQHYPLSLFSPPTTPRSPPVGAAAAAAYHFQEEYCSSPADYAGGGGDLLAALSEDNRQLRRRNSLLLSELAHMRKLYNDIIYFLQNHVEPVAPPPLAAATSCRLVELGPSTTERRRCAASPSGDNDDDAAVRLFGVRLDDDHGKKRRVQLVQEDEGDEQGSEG

CGTCGGAATAGCTGCGAATTTGGAGGTGGAACGATCGGACTTCTCTGAGTTCTTACTCTGATGTTTGCTTGGTTTGCTTTGCGTTTTCTTCGTGGTTCTGCCGGTGAAGGGGAGCGCGGTTTTATAGAGGGCAGCGAGAGGGCATCGTGGAGCTTGGAATAAGCTTCTAGAAACTTCCAGTTTGCCCCCGCATGGGCTAGAACCTAGTACGAGATAGCTTGGGCTAGAAGTTTACACCACCGGTAGCGGGGTGGGCTGTAGCCCATAGCGTCCAG (double strand)
binding: binds
